Test system: green fluorescent protein (GFP) carrying an ssrA tag at the C-terminus

For unfoldase ClpX, the “controlled translocation through the opened ClpP-nanopore (ionic current traces, ATP present)” value was “ClpX-assisted transport of GFP across opened ClpP-nanopore in the presence of ATP”.
